Laboratory results as given in US5686294A.

Substrate: O=C(O)CC(=O)C(=O)O
Assay: purified protein, by the assay type
Conditions: other: recombinant enzyme from Escherichia coli JM109 (pMDH1) (Example 6, Table 4)

B1: heat-resistant malate dehydrogenase (MAD) of Bacillus stearothermophilus ATCC 12016 gene, produced by Escherichia coli JM109 (pMDH1), amino acid sequence SEQ … (protein)
chain: MAMKRKKISVIGAGFTGATTAFLLAQKELGDVVLVDIPQLENPTKGKALDMLEASPVLGFDANIIGTSDYADTADSDIVVITAGIARKPGMSRDDLVTTNQKIMKQVTKEVVKYSPNCYIIVLTNPVDAMTYTVFKESGFPKNRVIGQSGVLDTARFRTFVAEELNISVKDVTGFVLGGHGDDMVPLVRYSYAGGIPLEKLIPKDRLDAIVERTRKGGGEIVNLLGNGSAYYAPAASLVEMVEAILKDQRRILPAIAYLEGEYGYEGIYLGVPTILGGNGIEKVIELELTEEEKARSPNPSNPLKMSCACWNSGEAKIRALPGFLSHSQ
- Km: 4.3 µM
